Measurements as given in patent US20250282887A1 (Amgen, published 2025).
Residue numbers refer to the chain shown, from its start.

T1: Human MAGEB2 (Melanoma-associated antigen B2) (human, UniProt O15479 1-319)
T1 construct: Intracellular antigen detected by IHC in FFPE material: CHO cells transfected with human MAGEB2 (mCherry vector with Myc/DDK tags, or ORF without tags)
T1 sequence: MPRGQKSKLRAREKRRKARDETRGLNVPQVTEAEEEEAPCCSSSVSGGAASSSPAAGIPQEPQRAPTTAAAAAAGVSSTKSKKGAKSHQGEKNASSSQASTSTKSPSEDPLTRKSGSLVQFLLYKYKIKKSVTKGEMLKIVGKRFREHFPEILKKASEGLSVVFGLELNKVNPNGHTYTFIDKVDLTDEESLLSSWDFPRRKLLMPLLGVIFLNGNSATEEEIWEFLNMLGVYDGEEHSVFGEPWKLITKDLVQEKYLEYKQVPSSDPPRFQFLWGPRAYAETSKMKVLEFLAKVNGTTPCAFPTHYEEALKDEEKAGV

B1: 1C3 (antibody, V domains shown)
VH: QSLEESGGGLVQPEGSLTLTCTAFGVTLTNYYICWVRQAPGKGLEWVGCIDNANGRTYYASWAKGRFTISKTSSTTGTLQMTSLTAADTATYFCARSLATPLWGPGTLVTVSS
VL: DIVMTQTPSSVEAAVGGTVTIKCQASQNISSYLAWYQQKPGQPPKLLIYRASTLASGVPSRFKGSGSGTQFTLTISDLECADAATYYCQSYDDSRSSNFFYAFGGGTEVVVKG
notes: also called MAGE-B2 (IC3); anti-MAGEB2 antibody 1C3
B2: 4G17 (antibody, IgG1, V domains shown)
VH: B1 VH with F24S, T29S, V47I, A53V
VL: DIVMTQTPASVEAAVGGTVTIKCQASQNIDSYLAWYQQKPGQPPKLLIYRASTLASGVPSRFKGSGSGTEFTLTISDLECADAATYYCQSYDDSRSSSFFYGFGGGTEVVVK
notes: Rabbit monoclonal IgG1; Tested as supernatant and as small batch purified antibody; also called MAGE-B2 (4G17); anti-MAGEB2 antibody 4G17
B3: 1J15 (antibody, IgG1, V domains shown)
VH: B1 VH with V26F, T29N, V47I, G48A, G77V, A99S
VL: B2 VL with N28S, D30S, A34S, K63R, E70Q, R95S, S96D, S97N, S98N, K112R
notes: Rabbit monoclonal IgG1; Tested as supernatant and as small batch purified antibody; also called MAGE-B2 (IJ15); anti-MAGEB2 antibody 1J15
B4: 1I14 (antibody, V domains shown)
VH: QSVEESGGRLVTPGTPLTLTCTISGFSLSSYAMSWVRQAPGKGLEWIGSIGGGGSAVYASWAKGRFTISKTSTTVDLRITSPTTEDTAMYFCGRGFYSIDLWGPGTLVTVSS
VL: DVVMTQTPASVEATVGGTVTIKCQSSQSVYDNNALAWYQQNAGQRPRLLIYGASTLASGVPSRFSASGSGTEFTLTISDLECADAATYYCQCTYYVSSYQNDFGGGTEVVVKG
notes: also called MAGE-B2 (1i14)

Molecular target: T1, Human MAGEB2 (Melanoma-associated …)
Experiment: IHC on FFPE T98G cells (endogenous MAGEB2)
Method: FFPE samples were sectioned at 4 μm and mounted on positive charged glass slides. After mounting, paraffin sections were air-dried at room temperature. FFPE TMA samples were received as freshly sectioned and mounted on glass slides. The fully automated IHC assay was performed on a Discovery Ultra Stainer (Ventana Medical Systems, Tucson, AZ) using Ventana Anti-Rabbit HQ (cat #760-4815), Ventana Anti-HQ HRP (cat #760-4820), and Ventana Antibody Diluent with Casein (cat #760-219) (Ventana Medical Systems, Tucson, AZ). The slides were baked on the Discovery Ultra Stainer at 60° C. for 8 minutes, de-paraffinized with Ventana Discovery wash (cat #950-510) for 3 cycles (8 minutes each) at 69° C., and underwent cell conditioning (target retrieval) at 95° C. for 16 minutes (for cell arrays) or 32 minutes (tissues or TMAs) in CC1 buffer (cat #950-500). Following this, slides were incubated with Background Sniper (cat #BS966M, Biocare Medical, Pacheco, CA) in a Ventana Option Prep kit (cat #771-751) for 28 minutes, incubated with CM inhibitor (a part of the Ventana DAB kit cat #760-159) for 12 minutes, and incubated for 1 h at RT with MAGE-B2 antibody diluted with Ventana diluent with Casein in a Ventana Prep kit (cat #770-001) (working concentration at 0.1 μg/ml for cell pellet, or 1-5 ug/ml for tissues) or with a matched concentration of isotype control Rabbit IgG1 antibody. Following this, slides were incubated with the Ventana Anti-Rabbit HQ (cat #760-4815) for 28 minutes at RT, Ventana Anti-HQ HRP (cat #760-4820) for 28 minutes at RT, and signals detected with Ventana DAB chromogen kit (cat #760-159) for 5 minutes at RT. Slides were counterstained with Ventana Hematoxylin II (cat #5266726001) for 8 minutes and Ventana Bluing reagent (cat #526676900) for 4 minutes. Slides were coverslipped and digitized using an Aperio AT2 scanner (Leica Biosystems Inc, Buffalo Grove, IL).

Binder | IHC % Frequency [%] | IHC Intensity
B1 | 70 | 2
B2 | 70 | 2
B3 | 70 | 1
B4 | 70 | 2
